# Assay results from patent publication US20230035235A1.
# Assays:
# ACTL6A (human) [1] = biological target: ACTL6A (human) (UniProt O96019); test: HA affinity purification of HA-DPF2 from HEK-293T nuclear extract, glycerol gradient fraction 14, mass spectrometry of co-purified proteins
# BCL7A (human) [2] = biological target: BCL7A (human) (UniProt Q4VC05); test: as above
# BCL7C (human) [3] = biological target: BCL7C (human) (UniProt Q8WUZ0); test: as above
# SMARCB1 (human) [4] = biological target: SMARCB1 (human) (UniProt Q12824); test: as above
# Chain of SMARCB1 (human) (Q12824 whole entry): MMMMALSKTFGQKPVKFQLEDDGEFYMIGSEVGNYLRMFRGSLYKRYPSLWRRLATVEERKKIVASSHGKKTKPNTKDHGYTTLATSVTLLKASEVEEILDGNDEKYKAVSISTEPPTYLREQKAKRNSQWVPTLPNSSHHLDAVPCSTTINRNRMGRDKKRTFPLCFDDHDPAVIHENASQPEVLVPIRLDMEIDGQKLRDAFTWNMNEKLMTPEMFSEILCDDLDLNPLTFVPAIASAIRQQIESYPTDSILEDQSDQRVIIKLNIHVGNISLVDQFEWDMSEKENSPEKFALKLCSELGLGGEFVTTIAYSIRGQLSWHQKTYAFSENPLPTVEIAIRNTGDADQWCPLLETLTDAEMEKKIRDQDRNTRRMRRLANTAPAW
# SMARCD1 (human) = SMARCD1 (human) (UniProt Q96GM5); test: as above
# Chain of SMARCD1 (human) (Q96GM5 whole entry): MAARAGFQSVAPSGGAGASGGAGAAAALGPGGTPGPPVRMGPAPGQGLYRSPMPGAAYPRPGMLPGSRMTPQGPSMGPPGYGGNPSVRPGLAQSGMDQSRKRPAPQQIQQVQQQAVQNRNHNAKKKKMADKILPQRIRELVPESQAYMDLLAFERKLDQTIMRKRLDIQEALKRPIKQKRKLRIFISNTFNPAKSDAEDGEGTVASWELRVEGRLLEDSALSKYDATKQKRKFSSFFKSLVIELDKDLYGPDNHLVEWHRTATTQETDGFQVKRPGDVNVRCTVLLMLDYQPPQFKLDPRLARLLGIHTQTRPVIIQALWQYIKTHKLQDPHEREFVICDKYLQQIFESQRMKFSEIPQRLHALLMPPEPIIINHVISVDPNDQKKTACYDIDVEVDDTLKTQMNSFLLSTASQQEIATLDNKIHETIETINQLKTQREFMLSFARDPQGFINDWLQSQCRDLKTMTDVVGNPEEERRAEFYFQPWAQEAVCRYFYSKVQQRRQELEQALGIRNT
# SMARCD2 (human) = SMARCD2 (human) (UniProt Q92925); test: as above
# Chain of SMARCD2 (human) (Q92925 whole entry): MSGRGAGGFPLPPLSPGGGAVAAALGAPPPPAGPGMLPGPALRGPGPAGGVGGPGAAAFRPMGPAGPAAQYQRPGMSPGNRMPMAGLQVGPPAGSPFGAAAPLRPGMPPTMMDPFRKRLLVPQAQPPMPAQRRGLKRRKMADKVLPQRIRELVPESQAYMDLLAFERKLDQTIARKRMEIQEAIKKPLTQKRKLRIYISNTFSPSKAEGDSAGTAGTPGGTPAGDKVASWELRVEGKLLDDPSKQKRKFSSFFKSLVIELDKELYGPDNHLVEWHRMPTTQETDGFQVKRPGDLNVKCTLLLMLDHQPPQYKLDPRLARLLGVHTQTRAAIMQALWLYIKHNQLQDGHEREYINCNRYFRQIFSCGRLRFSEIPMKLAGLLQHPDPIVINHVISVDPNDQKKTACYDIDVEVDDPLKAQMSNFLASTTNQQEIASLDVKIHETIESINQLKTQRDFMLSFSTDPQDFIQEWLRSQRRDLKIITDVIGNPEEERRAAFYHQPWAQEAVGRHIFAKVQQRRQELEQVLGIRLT
# SMARCE1 (human) = SMARCE1 (human) (UniProt Q969G3); test: as above
# Chain of SMARCE1 (human) (Q969G3 whole entry): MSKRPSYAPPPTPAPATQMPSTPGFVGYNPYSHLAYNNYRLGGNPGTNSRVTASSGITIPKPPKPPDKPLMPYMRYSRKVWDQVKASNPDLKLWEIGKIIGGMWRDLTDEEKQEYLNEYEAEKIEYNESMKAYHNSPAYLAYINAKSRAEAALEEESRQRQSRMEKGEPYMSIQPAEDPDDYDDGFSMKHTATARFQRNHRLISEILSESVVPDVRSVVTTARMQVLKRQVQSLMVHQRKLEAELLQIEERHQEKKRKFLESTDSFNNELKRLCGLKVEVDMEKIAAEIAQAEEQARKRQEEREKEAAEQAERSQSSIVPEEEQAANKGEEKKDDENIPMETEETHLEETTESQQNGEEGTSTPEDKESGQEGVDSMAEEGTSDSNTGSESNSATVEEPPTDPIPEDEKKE
# SS18 (human) = SS18 (human) (UniProt Q15532); test: as above
# SS18L1 (human) [5] = biological target: SS18L1 (human) (UniProt O75177); test: as above
# Chain of SS18L1 (human) (O75177 whole entry): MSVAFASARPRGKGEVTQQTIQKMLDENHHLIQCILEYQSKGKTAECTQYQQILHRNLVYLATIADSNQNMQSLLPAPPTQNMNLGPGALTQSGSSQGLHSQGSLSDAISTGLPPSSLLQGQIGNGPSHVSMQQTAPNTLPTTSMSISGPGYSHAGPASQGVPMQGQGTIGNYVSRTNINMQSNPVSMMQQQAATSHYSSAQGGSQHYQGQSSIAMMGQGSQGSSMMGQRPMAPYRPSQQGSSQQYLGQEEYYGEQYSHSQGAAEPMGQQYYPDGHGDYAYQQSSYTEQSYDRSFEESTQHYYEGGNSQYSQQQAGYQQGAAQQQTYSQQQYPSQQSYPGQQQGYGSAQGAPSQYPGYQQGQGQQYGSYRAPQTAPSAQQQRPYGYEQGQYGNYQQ
# ACTL6A (human) [6] = biological target: ACTL6A (human) (UniProt O96019); test: HA affinity purification from HEK-293T nuclear extract, glycerol gradient fraction 15, mass spectrometry (co-purification in the complex)
# BCL7A (human) [7] = biological target: BCL7A (human) (UniProt Q4VC05); test: as above
# BCL7C (human) [8] = biological target: BCL7C (human) (UniProt Q8WUZ0); test: as above
# BRD7 (human) = BRD7 (human) (UniProt Q9NPI1); test: as above
# BRD9 (human) = BRD9 (human) (UniProt Q9H8M2); test: as above
# DPF1 (human) = DPF1 (human) (UniProt Q92782); test: as above
# DPF2 (human) = DPF2 (human) (UniProt Q92785); test: as above
# DPF3 (human) = DPF3 (human) (UniProt Q92784); test: as above
# Chain of DPF3 (human) (Q92784 whole entry): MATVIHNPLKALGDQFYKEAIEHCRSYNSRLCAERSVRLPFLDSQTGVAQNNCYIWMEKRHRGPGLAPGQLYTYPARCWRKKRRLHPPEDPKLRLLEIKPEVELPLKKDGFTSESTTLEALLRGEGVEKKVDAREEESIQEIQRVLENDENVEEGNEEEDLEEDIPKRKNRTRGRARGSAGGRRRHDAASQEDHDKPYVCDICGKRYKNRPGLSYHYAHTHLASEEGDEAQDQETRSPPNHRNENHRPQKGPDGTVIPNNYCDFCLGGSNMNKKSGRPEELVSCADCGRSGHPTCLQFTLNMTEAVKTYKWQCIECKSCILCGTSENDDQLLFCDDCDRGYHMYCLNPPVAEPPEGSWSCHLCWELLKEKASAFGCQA
# GLTSCR1 (human) = GLTSCR1 (human) (UniProt Q9NZM4); test: as above
# Chain of GLTSCR1 (human) (Q9NZM4 whole entry): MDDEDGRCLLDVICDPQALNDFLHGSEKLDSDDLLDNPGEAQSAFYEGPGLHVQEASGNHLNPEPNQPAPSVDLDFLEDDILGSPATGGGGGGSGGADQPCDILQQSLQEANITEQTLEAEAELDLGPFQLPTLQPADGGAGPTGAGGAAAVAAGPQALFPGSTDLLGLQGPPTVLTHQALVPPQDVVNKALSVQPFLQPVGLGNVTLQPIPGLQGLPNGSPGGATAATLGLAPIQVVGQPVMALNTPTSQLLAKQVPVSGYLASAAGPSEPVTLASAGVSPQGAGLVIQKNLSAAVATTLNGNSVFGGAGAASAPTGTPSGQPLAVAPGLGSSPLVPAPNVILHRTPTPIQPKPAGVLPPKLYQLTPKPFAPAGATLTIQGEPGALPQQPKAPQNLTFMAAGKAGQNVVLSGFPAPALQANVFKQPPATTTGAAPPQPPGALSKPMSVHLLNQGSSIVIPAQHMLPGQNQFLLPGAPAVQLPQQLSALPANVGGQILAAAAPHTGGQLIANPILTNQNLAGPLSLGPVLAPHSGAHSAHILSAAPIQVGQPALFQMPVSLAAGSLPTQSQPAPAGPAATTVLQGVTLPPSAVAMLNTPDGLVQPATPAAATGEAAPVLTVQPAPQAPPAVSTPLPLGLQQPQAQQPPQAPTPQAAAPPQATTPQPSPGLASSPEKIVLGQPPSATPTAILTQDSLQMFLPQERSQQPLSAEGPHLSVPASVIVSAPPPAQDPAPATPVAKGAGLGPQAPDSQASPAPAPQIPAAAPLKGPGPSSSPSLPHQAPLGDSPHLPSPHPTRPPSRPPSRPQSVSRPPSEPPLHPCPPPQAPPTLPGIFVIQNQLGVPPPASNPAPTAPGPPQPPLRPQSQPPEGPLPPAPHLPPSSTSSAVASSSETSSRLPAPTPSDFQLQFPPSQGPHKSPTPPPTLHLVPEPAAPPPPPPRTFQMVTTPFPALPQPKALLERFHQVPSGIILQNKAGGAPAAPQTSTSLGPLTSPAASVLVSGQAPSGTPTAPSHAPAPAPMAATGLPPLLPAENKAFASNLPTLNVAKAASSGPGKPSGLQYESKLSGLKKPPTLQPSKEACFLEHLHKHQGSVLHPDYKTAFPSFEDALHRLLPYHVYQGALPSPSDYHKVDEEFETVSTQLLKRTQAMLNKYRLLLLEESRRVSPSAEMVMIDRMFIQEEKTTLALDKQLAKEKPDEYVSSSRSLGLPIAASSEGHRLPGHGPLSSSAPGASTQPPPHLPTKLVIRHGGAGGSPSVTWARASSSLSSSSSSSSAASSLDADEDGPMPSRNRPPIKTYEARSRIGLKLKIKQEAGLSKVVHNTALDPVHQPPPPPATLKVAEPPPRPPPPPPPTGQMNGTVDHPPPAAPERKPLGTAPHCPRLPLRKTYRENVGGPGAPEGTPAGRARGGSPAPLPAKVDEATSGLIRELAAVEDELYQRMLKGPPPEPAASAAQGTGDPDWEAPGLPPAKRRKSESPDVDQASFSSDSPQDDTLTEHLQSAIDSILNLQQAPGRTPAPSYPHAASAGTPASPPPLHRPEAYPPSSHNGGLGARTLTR
# GLTSCR1L (human) = GLTSCR1L (human) (UniProt Q6AI39); test: as above
# PBRM1 (human) = PBRM1 (human) (UniProt Q86U86); test: as above
# PHF10 (human) = PHF10 (human) (UniProt Q8WUB8); test: as above
# SMARCB1 (human) [9] = biological target: SMARCB1 (human) (UniProt Q12824); test: as above
# SS18L1 (human) [10] = biological target: SS18L1 (human) (UniProt O75177); test: as above
# [11] = biological target: DPF1 (entry E9PDV3) (human); test: HA affinity purification of HA-SMARCD1 mSWI/SNF complexes from HEK-293T nuclear extract, glycerol gradient fraction 15, mass spectrometry; co-purification in the complex, not necessarily direct contact
# [12] = biological target: SMARCA4 (entry Q9HBD4) (human); test: as above
# [13] = biological target: DPF2 (Double PHD Fingers 2) (human) (UniProt Q92785); test: colloidal blue stain and fluorometric analysis of DPF2-purified complexes
# Chain of ACTL6A (human) (O96019 2-429 limits assumed): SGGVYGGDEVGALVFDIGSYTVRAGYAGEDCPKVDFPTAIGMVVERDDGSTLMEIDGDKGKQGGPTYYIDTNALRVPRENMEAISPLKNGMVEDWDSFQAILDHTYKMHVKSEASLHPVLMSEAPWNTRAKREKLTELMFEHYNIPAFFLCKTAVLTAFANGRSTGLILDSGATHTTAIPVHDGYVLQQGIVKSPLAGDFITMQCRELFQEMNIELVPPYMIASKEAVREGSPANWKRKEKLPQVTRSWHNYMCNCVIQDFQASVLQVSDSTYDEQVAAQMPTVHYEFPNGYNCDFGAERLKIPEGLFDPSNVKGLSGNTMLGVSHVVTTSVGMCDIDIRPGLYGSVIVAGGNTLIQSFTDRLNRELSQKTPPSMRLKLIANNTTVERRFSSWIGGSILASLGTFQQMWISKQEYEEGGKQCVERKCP
# Chain of BCL7A (human) (Q4VC05 whole entry): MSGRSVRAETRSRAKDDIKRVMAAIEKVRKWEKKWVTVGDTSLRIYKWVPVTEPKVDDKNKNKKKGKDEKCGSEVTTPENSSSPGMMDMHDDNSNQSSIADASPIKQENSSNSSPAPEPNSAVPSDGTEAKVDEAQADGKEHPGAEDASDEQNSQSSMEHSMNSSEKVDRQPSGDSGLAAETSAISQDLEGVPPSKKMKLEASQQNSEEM
substance,measurement,setting,value
HA-DPF2 (from UniProt Q92785 1-391),total peptides,ACTL6A (human) [1],61 peptides
same,unique peptides,ACTL6A (human) [1],23 peptides
same,total peptides,BCL7A (human) [2],36 peptides
same,total peptides,BCL7C (human) [3],13 peptides
same,unique peptides,BCL7C (human) [3],7 peptides
same,total peptides,SMARCB1 (human) [4],62 peptides
same,unique peptides,SMARCB1 (human) [4],22 peptides
same,total peptides,SMARCD1 (human),83 peptides
same,unique peptides,SMARCD1 (human),37 peptides
same,total peptides,SMARCD2 (human),51 peptides
same,unique peptides,SMARCD2 (human),32 peptides
same,total peptides,SMARCE1 (human),118 peptides
same,unique peptides,SMARCE1 (human),40 peptides
same,total peptides,SS18 (human),2 peptides
same,unique peptides,SS18 (human),2 peptides
same,total peptides,SS18L1 (human) [5],3 peptides
same,unique peptides,SS18L1 (human) [5],2 peptides
HA-SMARCD1 (from UniProt Q96GM5 1-515),total peptides,ACTL6A (human) [6],58 peptides
same,total peptides,BCL7A (human) [7],33 peptides
same,unique peptides,BCL7A (human) [7],12 peptides
same,total peptides,BCL7C (human) [8],19 peptides
same,unique peptides,BCL7C (human) [8],8 peptides
same,total peptides,BRD7 (human),29 peptides
same,unique peptides,BRD7 (human),19 peptides
same,total peptides,BRD9 (human),8 peptides
same,unique peptides,BRD9 (human),8 peptides
same,total peptides,DPF1 (human),7 peptides
same,unique peptides,DPF1 (human),6 peptides
same,total peptides,DPF2 (human),41 peptides
same,unique peptides,DPF2 (human),19 peptides
same,total peptides,DPF3 (human),12 peptides
same,unique peptides,DPF3 (human),10 peptides
same,total peptides,GLTSCR1 (human),11 peptides
same,unique peptides,GLTSCR1 (human),10 peptides
same,total peptides,GLTSCR1L (human),1 peptides
same,unique peptides,GLTSCR1L (human),1 peptides
same,total peptides,PBRM1 (human),115 peptides
same,unique peptides,PBRM1 (human),79 peptides
same,total peptides,PHF10 (human),14 peptides
same,unique peptides,PHF10 (human),14 peptides
same,total peptides,SMARCB1 (human) [9],75 peptides
same,total peptides,SS18L1 (human) [10],2 peptides
same,unique peptides,SS18L1 (human) [10],2 peptides
same,total peptides,[11],1
same,unique peptides,[11],1
same,total peptides,[12],1
same,unique peptides,[12],1
"SMARCC2 (SWI/SNF related, matrix associated, actin dependent regulator of chromatin subfamily c member 2) (from UniProt Q8TAQ2 1-1214)",stoichiometry relative to DPF2 bait (copies per DPF2),[13],1
